The record followed here is US20210063414A1, “METHODS FOR PREVENTING AND/OR TREATING BONE LOSS CONDITIONS BY MODULATING IRISIN” (Dana-Farber Cancer Institute, Inc., priority 2018, published 2021).

Holding throughout (test): Crosslinking/co-immunoprecipitation/mass spectrometry (TMT quantitative proteomics) to identify irisin receptors
Common to all, as to type: binding

Test [1] deals with T1, MLO-Y4 cell surface proteins (Mus musculus, UniProt P09671).
T1 construct: endogenous in cells; host or cells: MLO-Y4
T1 sequence (P09671 25-222): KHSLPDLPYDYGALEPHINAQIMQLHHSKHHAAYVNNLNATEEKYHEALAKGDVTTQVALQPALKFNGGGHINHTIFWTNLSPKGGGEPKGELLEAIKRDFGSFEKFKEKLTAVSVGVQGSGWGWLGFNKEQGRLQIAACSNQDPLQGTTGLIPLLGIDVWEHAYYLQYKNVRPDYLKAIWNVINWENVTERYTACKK
Particulars: co-precipitated protein Sod2 (SODM_MOUSE). A digest of the protocol:
(§1)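 Relative protein abundance came from 6-plex TMT MS3 quantitation on an Orbitrap Fusion Lumos, after in-gel trypsin digestion of Coomassie-stained SDS-PAGE lanes. Input was a Ni-NTA pulldown (250 mM imidazole elution) of lysates from murine MLO-Y4 cells. These cells were treated on ice with His-tagged irisin or adipsin (10 nM, 20 min) in serum-free medium, then crosslinked with 1.5 mM DTSSP for 30 min.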

Test [2] concerns the target T2, MLO-Y4 cell surface proteins (Mus musculus, UniProt Q9D051).
T2 construct: endogenous in cells; host or cells: MLO-Y4
T2 sequence (Q9D051 31-359): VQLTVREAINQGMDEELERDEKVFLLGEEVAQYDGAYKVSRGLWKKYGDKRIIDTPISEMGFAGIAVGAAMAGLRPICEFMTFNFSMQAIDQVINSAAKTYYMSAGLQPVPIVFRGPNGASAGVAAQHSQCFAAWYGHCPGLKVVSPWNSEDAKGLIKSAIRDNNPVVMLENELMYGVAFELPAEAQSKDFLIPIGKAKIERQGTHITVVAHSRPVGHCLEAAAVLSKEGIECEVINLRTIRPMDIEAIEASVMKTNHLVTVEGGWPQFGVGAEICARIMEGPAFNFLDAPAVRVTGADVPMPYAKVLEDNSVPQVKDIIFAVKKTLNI
Particulars: co-precipitated protein Pdhb (ODPB_MOUSE). A digest of the protocol:
as §1

Test [3] has as its target T3, MLO-Y4 cell surface proteins (Mus musculus, UniProt E9Q557).
T3 construct: endogenous in cells; host or cells: MLO-Y4
Particulars: co-precipitated protein Dsp (DESP_MOUSE). An outline of the steps: as §1

T3 sequence (E9Q557 whole entry): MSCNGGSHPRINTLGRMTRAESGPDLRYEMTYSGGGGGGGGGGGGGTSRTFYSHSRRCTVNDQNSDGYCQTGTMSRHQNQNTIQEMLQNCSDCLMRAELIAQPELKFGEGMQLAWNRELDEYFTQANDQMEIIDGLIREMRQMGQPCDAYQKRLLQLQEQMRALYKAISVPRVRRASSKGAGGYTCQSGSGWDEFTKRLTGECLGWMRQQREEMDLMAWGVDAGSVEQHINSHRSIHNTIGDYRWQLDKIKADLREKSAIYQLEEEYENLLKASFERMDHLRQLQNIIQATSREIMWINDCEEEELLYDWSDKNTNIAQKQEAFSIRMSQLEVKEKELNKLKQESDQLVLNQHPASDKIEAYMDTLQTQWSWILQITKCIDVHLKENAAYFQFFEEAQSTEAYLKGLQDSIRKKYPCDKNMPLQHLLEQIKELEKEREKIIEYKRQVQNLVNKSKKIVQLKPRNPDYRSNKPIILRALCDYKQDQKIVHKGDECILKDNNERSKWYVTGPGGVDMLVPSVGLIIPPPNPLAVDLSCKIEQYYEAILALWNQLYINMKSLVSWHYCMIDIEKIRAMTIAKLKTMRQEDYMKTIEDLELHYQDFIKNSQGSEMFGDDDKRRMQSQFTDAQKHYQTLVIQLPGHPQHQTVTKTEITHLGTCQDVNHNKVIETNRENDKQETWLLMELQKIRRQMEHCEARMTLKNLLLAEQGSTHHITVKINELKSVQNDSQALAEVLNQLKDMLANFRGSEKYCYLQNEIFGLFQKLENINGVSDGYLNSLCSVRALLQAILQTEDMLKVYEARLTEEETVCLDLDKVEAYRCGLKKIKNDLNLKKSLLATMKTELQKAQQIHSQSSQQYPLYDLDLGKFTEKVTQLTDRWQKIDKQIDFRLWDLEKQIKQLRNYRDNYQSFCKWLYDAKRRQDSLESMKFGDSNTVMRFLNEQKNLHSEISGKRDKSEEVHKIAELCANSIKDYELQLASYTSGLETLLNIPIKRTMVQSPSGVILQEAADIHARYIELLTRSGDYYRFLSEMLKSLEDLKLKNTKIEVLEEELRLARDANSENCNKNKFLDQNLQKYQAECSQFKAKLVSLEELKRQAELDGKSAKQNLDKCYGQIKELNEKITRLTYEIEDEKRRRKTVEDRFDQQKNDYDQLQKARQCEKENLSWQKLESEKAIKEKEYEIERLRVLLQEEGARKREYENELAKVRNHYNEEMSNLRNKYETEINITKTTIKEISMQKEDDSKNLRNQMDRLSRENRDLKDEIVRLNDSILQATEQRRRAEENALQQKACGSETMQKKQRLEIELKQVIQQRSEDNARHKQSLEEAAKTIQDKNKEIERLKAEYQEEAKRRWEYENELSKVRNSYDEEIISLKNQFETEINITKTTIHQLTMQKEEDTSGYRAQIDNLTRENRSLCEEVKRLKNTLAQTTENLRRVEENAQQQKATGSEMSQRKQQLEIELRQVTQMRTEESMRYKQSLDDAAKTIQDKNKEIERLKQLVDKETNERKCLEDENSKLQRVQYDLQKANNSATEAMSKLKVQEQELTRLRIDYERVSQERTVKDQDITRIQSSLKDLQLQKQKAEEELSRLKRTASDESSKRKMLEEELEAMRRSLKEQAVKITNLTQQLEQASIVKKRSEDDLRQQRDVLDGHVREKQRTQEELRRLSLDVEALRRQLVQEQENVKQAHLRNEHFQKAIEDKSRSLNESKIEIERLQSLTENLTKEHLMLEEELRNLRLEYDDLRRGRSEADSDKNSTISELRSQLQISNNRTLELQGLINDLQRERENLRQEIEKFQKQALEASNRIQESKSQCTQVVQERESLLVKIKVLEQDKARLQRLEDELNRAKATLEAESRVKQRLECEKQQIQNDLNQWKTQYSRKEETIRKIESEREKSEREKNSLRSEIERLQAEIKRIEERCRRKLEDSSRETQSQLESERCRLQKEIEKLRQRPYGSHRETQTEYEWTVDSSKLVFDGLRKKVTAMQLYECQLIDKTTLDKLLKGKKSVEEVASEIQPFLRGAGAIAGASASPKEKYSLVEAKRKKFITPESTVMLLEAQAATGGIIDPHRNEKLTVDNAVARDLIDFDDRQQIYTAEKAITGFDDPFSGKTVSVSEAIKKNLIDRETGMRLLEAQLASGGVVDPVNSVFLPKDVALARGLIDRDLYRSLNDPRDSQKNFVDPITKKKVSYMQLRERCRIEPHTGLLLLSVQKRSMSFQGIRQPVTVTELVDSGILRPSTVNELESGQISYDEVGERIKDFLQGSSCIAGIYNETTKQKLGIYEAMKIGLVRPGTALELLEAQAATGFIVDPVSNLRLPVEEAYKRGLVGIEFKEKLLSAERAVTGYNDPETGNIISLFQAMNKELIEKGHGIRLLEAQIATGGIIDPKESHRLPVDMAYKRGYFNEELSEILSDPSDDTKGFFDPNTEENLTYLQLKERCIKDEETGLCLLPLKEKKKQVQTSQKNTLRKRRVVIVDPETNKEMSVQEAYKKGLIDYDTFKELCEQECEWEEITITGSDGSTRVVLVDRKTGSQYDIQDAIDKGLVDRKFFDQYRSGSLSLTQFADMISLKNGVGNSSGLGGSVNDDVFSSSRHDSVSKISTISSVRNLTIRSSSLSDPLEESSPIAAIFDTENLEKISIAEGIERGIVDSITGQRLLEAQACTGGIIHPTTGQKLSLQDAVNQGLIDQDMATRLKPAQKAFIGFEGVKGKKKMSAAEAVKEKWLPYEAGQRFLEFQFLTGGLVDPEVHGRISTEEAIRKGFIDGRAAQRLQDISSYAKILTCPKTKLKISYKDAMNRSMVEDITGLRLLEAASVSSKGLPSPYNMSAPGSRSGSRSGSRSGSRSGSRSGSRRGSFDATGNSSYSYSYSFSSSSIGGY

B1: irisin: secreted cleaved form of FNDC5; recombinant human/mouse irisin with C-terminal his tag produced in HEK293 cells (protein)
chain: DSPSAPVNVTVRHLKANSAVVSWDVLEDEVVIGFAISQQKKDVRMLRFIQEVNTTTRSCALWDLEEDTEYIVHVQAISIQGQSPASEPVLFKTPREAEKMASKNKDEVTMKE
modifications: left off: small tags and cut ends
notes: secreted cleaved form of FNDC5; recombinant human/mouse irisin with C-terminal his tag produced in HEK293 cells
In the case of B1, the TMT signal-to-noise ratio in test [1] was 472.133; in test [2] it was 123.1; in test [3] it was 2.707. In addition, the figures for the “irisin/adipsin TMT signal-to-noise ratio” value in test [1], in test [2] and in test [3] were 0.458, 0.337 and 0.034, respectively.
